Source: patent US20240182592A1 (CHIA TAI TIANQING PHARMACEUTICAL GROUP, published 2024)

T1: human BCMA on cells (human, UniProt Q02223 1-184)
T1 construct: whole, on cells; also called CHO-hBCMA cells; U266 cells
T1 sequence (looked up): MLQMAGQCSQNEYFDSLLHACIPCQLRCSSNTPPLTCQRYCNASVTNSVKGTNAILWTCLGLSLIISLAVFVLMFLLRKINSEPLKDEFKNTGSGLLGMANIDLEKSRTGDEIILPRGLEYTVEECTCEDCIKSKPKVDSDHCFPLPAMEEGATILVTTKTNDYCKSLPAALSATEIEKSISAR

T2: human TACI protein (human, UniProt O14836 2-166, limits assumed)
T2 sequence (looked up): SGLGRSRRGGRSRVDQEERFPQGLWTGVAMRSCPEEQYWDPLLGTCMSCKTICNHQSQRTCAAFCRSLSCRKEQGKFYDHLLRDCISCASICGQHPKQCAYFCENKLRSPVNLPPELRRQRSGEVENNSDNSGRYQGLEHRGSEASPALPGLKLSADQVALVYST

T3: human BCMA-His (ACRO, product catalog No. BCA-H522y) (human, UniProt Q02223 1-54, biotin-conjugated in the ELISAs of Examples 5 and 6.1 (site not stated))
T3 construct: Bought protein; also called BCMA-His protein; biotin-conjugated recombinant BCMA-His protein; not shown: His tag
T3 sequence (looked up): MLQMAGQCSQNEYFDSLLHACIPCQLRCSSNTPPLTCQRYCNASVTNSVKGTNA

T4: human BCMA protein (human, UniProt Q02223 1-54, limits assumed)
T4 construct: also called hBCMA; Antigen BCMA
T4 sequence (looked up): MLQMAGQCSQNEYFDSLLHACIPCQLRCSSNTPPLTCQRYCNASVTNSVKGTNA


Key:
[1] = molecular target: cynomolgus monkey BCMA protein (cynomolgus monkey, UniProt A0A2K5UD97 1-53); assay: SPR (Biacore T200)
human BCMA on cells [2] = molecular target: T1, human BCMA on cells; assay: flow cytometry, U266 cells
Text: (§1) The binding of the anti-human BCMA VHH-Fc chimeric antibodies to target cells with different BCMA expression levels was detected by flow cytometry. The CHO-hBCMA cells (iCarTab Biotechnology (Suzhou) Co. Ltd., product catalog No. AKD001A) were a stably transfected cell line highly expressing BCMA. The U266 cells (Cell Culture Center, Institute of Basic Medical Sciences, Chinese Academy of Medical Sciences, product catalog No. 3111C0001CCC000684) were a natural human myeloma cell line expressing BCMA at medium levels. The PRMI8226 cells (Cell Culture Center, Institute of Basic Medical Sciences, Chinese Academy of Medical Sciences, product catalog No. 3111C0001CCC000083) were a natural human myeloma cell line expressing BCMA at low levels. The HUVEC cells (ScienCell Research Laboratories, product catalog No. […] 8000) were a human umbilical vein endothelial cell line not expressing BCMA. […] A PE-labeled anti-human IgG Fc antibody (Jackson Immuno Rescarch, product catalog No. 109-116-170) was added, and the mixture was incubated on ice for 0.5 h. The cells were washed and then tested using a flow cytometer (Thermo Fisher Scientific Inc., Attune NXT).

human BCMA on cells [3] = molecular target: T1, human BCMA on cells; assay: flow cytometry, CHO-hBCMA cells
Text: as §1

human TACI protein = molecular target: T2, human TACI protein; assay: SPR (Biacore T200), antibody captured by anti-hIgG (Fc)
Description: (§2) The anti-human BCMA VHH-Fc chimeric antibodies were tested for specificity using a biomolecular interaction analysis system (GE, Biacore T200). An anti-hIgG (Fc) antibody (GE, product catalog No. BR-1008-39) was amino-coupled to a CM5 sensor chip. The anti-human BCMA VHH-Fc chimeric antibodies were diluted to 2 μg/mL with a running buffer (137 mM NaCl, 2.7 mM KCl, 10 mM Na₂HPO₄.12H₂O, 1.8 mM KH₂PO₄, 0.05% surfactant P-20 (w/v), pH 7.4), and capture was allowed for 90 s by passing the dilutions through experimental channels at a flow rate of 30 μL/min. Human TACI or BAFF-R protein was diluted to 100 nM with the running buffer, and binding was allowed by passing the dilution at a flow rate of 50 μL/min. The binding signal curve was observed.

human BAFF-R protein = human BAFF-R protein (human, UniProt Q96RJ3 7-71, limits assumed); assay: as above
Description: as §2

[4] = molecular target: T3, human BCMA-His (ACRO, product catalog …); assay: competitive ELISA: antibody blocks binding of biotin-BCMA-His to coated APRIL
Description: The plate was incubated at 37° C. for 1 h and then washed to remove unbound biotin-conjugated recombinant BCMA-His protein. HRP-conjugated streptavidin (eBioscience, product catalog No. 18-4100-51) was added, and the plate was washed 5 times and then subjected to color development. The light absorption signal values at the wavelength of 450 nm and the reference wavelength of 650 nm were measured.

[5] = molecular target: T3, human BCMA-His (ACRO, product catalog …); assay: competition ELISA (chessboard), biotin-BCMA-His; competitor: 1A10-Fc
Description: (§3) The anti-human BCMA VHH-Fc chimeric antibodies were diluted to 2 μg/mL and allowed to coat a high-adsorption microplate. The plate was washed and then blocked. […] According to a chessboard arrangement, the incubated mixtures of antigen and antibody or the biotin-conjugated BCMA-His protein alone (control group) were added in sequence to the well plate at 100 μL/well. The plate was incubated at 37° C. for 1 h. The plate was washed to remove unbound biotin-conjugated recombinant BCMA-His protein. HRP-conjugated streptavidin (eBioscience, product catalog No. 18-4100-51) was added, and the plate was washed 5 times and then subjected to color development. The light absorption signal values at the wavelength of 450 nm and the reference wavelength of 650 nm were measured. The blocking rate of one antibody for the binding signal of another antibody to BCMA-Bio was calculated according to the formula blocking rate=(signal value of control group−signal value of sample group)/signal value of control group×100%. Positive control groups in which antibodies competed with themselves are shown on the diagonal line “\” of the chessboard (indicated in gray).

[6] = molecular target: T3, human BCMA-His (ACRO, product catalog …); assay: competition ELISA (chessboard), biotin-BCMA-His; competitor: 1A11-Fc
Description: as §3

[7] = molecular target: T3, human BCMA-His (ACRO, product catalog …); assay: competition ELISA (chessboard), biotin-BCMA-His; competitor: 1B10-Fc
Description: as §3

[8] = molecular target: T3, human BCMA-His (ACRO, product catalog …); assay: competition ELISA (chessboard), biotin-BCMA-His; competitor: 1A1-Fc
Description: as §3

[9] = molecular target: T5, cynomolgus monkey BCMA on transiently transfected HEK293T cells (cynomolgus monkey, UniProt Q02223 1-184 (human entry)); assay: flow cytometry, HEK293T cells transiently transfected with cynomolgus monkey BCMA
T5 construct: it may be a nucleotide entry; also called HEK293T-CynoBCMA
Text: The cells were washed and then tested using a flow cytometer (Thermo Fisher Scientific Inc., Attune NXT).

human BCMA protein = molecular target: T4, human BCMA protein; assay: SPR (Biacore T200), antibody captured by anti-hIgG, human BCMA as analyte, 1:1 model
Description: The affinity of the test antibody for human BCMA protein was determined by Biacore T200 (GE) as follows:
The response signals were detected in real time using Biacore software, and association and dissociation curves were obtained. The buffer used in the experiment was Biacore universal buffer (137 mM NaCl, 2.7 mM KCl, 10 mM Na₂HPO₄.12H₂O, 1.8 mM KH₂PO₄, 0.05% surfactant P-20 (w/v), pH 7.4). […] The flow rate in the flow cell was at 50 μL/min, the association was performed for 240 s, the dissociation was performed for 1400 s, the regeneration was performed using 3 M MgCl₂ (GE) for 60 s, and the baseline was stable. Results were obtained by calculation according to the affinity and kinetics 1:1 binding mode in biacore evaluation software.

Chain of human BAFF-R protein (Q96RJ3 7-71 limits assumed): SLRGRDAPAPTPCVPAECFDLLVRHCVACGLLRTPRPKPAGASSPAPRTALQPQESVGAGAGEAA
T5 sequence (Q02223 other isoform, or with tags, fused parts or gaps): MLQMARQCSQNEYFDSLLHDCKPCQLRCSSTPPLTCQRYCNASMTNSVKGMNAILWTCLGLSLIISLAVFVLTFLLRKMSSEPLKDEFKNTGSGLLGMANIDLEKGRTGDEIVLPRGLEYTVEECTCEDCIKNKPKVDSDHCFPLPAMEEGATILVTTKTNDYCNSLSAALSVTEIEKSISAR
Chain of cynomolgus monkey BCMA protein (A0A2K5UD97 entry or part of it limits assumed): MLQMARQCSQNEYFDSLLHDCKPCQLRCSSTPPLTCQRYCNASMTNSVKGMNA

| Binder | binding result [1] | EC50 (human BCMA on cells [2]) | EC50 (human BCMA on cells [3]) | binding result (human TACI protein) | binding result (human BAFF-R protein) | IC50 [4] | blocking rate [5] | blocking rate [6] | blocking rate [7] | blocking rate [8] | EC50 [9] | Kd (human BCMA protein) |
| --- | --- | --- | --- | --- | --- | --- | --- | --- | --- | --- | --- | --- |
| 1A1-Fc (antibody, human IgG1, V domains shown, Camel VHH fused to human IgG1 Fc; also called anti-human BCMA VHH-Fc chimeric antibody 1A1-Fc) VH: QVQLVESGGGSVQAGGSLRLSCTASGYTFRGWNKHWYRQAPGKERELVSSIFRDGKTAYTDSVKGRFTISQDNADATVYLQMNSLKPEDTAMYYCKYDLPGSGLPAFWGQGTLVTVSS | no binding | 2.77 nM | 3.04 nM | no binding (tested: 100 nM) | no binding (tested: 100 nM) | 0.34 nM | 7.6% | 99.4% | 101% | – | – | – |
| 1B10-Fc (antibody, human IgG1, V domains shown, Camel VHH fused to human IgG1 Fc; also called anti-human BCMA VHH-Fc chimeric antibody 1B10-Fc) VH: EVQLVESGGGSVQAGGSLRLSCTASGYTFRGWNKHWYRQAPGKERELVSSIFRDGKTAYTDSVKGRFTISQDSADATVYLQMNSLKPEDTAMYYCKYDLPGSGLPEFWGQGTLVTVSS | no binding | 1.72 nM | 2.51 nM | no binding (tested: 100 nM) | no binding (tested: 100 nM) | 0.26 nM | 26.7% | 99.5% | – | 100% | – | – |
| 1A10-Fc (antibody, human IgG1, V domains shown, also called anti-human BCMA VHH-Fc chimeric antibody 1A10-Fc) VH: QVQLVESGGGSVQAGGSLRLSCAASGYSSNVACMAWYRQAPGKEREWVATIVADFGTTNYAASVKGRFTISQDNAKNTVYLQMNSLKPEDSAMYYCAATQRGGIDWCDEINYWGQGTLVTVSS | – | 4.64 nM | 4.28 nM | no binding (tested: 100 nM) | no binding (tested: 100 nM) | 0.41 nM | – | 32.6% | 46.4% | 36.9% | 2.02 nM | 0.94 nM |
| 1A11-Fc (antibody, human IgG1, V domains shown, also called anti-human BCMA VHH-Fc chimeric antibody 1A11-Fc) VH: QVQLVESGGGSVQAGGSLRLSCAASGVTFNSACMGWFRQAPGKEREGVARIETGYGGTVYADSVKGRFTISRDNAKNTVYLQMNSLKPEDTAMYYCAAKRSWCTPTWWHELDYNYWGQGTQVTVSS | – | 1.26 nM | 2.08 nM | no binding (tested: 100 nM) | no binding (tested: 100 nM) | 0.76 nM | 21.6% | – | 99.4% | 101% | 10.4 nM | 3.96 nM |
